# Target: Soluble rat tail collagen Type I (UniProt P02454)
# Sequence of cathepsin D (R&D systems, activated) (chain, as listed by the source): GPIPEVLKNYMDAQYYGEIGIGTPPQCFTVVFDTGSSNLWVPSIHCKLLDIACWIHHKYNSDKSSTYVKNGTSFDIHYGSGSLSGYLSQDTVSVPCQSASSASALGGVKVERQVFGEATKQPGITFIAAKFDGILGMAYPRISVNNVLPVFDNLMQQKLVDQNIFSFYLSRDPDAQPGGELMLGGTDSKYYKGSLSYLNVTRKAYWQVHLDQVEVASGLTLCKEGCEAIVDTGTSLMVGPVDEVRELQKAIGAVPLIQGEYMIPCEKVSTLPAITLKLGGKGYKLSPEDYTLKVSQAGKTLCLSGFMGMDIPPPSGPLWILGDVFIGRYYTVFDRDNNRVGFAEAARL
# Sequence of Histidine (His)-tagged purified recombinant human cathepsin-L (R&D Systems, Cat# 952-CY) (chain, as listed by the source): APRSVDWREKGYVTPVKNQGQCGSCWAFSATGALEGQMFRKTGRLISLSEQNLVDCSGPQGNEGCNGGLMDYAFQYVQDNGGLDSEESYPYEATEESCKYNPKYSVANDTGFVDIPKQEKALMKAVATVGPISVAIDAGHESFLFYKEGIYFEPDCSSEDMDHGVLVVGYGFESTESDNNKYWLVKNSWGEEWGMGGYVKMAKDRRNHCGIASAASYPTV
row,Substance,"degradation of soluble rat tail collagen Type I (1 hour at 37° C., SDS-Page gels, Coomassie Blue staining)"
1,Bacterial collagenase (Sigma Chemicals),bacterial collagenase degraded rat collagen at both pH 5.0 and pH 8.0
2,"Histidine (His)-tagged purified recombinant human cathepsin-L (R&D Systems, Cat# 952-CY)","cathepsin-L was the only enzyme that was active at pH 5.0, but not at pH 8.0"
3,"cathepsin B (R&D systems, activated)","Cathepsins B, D and S showed some slight degradation of rat collagen at the manufacture specified pH and no degradation of rat collagen at pH 8.0"
4,"cathepsin D (R&D systems, activated)","Cathepsins B, D and S showed some slight degradation of rat collagen at the manufacture specified pH and no degradation of rat collagen at pH 8.0"

# — patent publication US20100003237
